Consider 19 molecules from patent publication US20180134781A1 (Regeneron, published 2018).

Assay [1] concerns the target T1, hLDLR-mFc (negative control protein with the same mFc tag) (human, UniProt P01130 22-788).
T1 construct: also called Irrelevant control; not shown: mFc tag ('the same mFc tag', mouse IgG2a Fc)
As to the kind of experiment: BLI (Octet HTX), hLDLR-mFc captured on AMC sensor. As for the experimental part: (§1) Binding of ANGPTL8 antibodies to human and monkey ANGPTL8 proteins was investigated using Bio-layer Interferometry with an Octet HTX biosensor platform (ForteBio, A Division of Pall Life Sciences). All experiments were performed at 25° C. in 10 mM HEPES pH 7.4, 150 mM NaCl, 0.05% v/v Surfactant Tween-20, and 1 mg/ml BSA with the reaction multiwell plate agitated at 1000 rpm. Approximately 1.6 nm of human ANGPTL8 produced with a C-terminal mouse IgG2a Fc tag (hANGPTL8-mFc; SEQ ID NO: 340) or cynomolgus monkey ANGPTL8 produced with a C-terminal mouse IgG2a Fc tag (MfANGPTL8-mFc; SEQ ID NO: 341) was captured onto anti-mFc (AMC) Octet biosensors by submerging the sensors into wells containing 10 μg/mL of each protein for 4 minutes. Under the same conditions a negative control protein with the same mFc tag (hLDLR-mFc) was also coupled to the AMC sensor. All four sensors, […] and one blank, were then submerged into wells containing 100 nM of different ANGPTL8 monoclonal antibodies or an isotype control for 4 minutes.
(In general: BLI is a label-free optical method that tracks binding on a fibre tip over time.)

The target in assay [2] is T2, monkey ANGPTL8 expressed with C-terminal mouse IgG2a Fc tag (cynomolgus monkey).
T2 construct: also called MfANGPTL8-mFc; mfANGPTL8-mFc
T2 chain: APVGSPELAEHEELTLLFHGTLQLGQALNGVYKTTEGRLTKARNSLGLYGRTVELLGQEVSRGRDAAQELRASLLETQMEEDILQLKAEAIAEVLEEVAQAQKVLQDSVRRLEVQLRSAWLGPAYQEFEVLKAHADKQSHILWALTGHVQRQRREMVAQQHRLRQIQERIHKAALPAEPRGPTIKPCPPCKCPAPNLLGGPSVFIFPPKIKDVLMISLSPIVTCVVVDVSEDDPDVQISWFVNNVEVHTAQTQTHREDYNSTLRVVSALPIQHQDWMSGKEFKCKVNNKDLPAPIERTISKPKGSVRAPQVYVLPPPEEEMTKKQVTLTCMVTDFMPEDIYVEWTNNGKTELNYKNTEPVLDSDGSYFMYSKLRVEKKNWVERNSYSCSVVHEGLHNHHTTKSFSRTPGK
The assay can be described thus: BLI (Octet HTX), MfANGPTL8-mFc captured on AMC sensor. As for the experimental part:
as §1

T1 sequence (P01130 22-788): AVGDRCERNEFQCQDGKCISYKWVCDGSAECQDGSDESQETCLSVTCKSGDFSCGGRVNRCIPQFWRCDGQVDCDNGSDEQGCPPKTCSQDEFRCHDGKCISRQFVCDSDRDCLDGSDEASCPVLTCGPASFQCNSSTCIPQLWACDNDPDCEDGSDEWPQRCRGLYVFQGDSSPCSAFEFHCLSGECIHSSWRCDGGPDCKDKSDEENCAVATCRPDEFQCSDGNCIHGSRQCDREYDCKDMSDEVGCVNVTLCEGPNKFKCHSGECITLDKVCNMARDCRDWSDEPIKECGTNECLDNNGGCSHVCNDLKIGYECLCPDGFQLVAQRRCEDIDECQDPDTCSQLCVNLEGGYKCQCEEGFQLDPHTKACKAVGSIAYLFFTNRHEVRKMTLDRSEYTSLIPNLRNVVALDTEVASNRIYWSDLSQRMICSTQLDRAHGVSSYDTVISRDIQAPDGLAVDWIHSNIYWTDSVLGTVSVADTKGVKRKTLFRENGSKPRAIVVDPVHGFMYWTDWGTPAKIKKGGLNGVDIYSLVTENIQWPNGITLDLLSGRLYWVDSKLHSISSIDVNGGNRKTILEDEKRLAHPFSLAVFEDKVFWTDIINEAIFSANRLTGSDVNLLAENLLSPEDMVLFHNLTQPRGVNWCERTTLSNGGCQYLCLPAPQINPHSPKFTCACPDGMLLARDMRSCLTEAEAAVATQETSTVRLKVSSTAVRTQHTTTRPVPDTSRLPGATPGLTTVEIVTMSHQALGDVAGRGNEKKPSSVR

B1: H4H15354P2 (antibody, human IgG4, V domains shown)
VH: QVQLVESGGGVVQPGRSLRLSCTASGFTFNNYGIHWVRQAPGKGLEWVAVISYDGSNKFYAESVRGRFTISRDNSRNTLFLQMISLRGEDSAVYYCAKDRPYYDILTAHYPSDYYFYAMDVWGHGTTVTVSS
VL: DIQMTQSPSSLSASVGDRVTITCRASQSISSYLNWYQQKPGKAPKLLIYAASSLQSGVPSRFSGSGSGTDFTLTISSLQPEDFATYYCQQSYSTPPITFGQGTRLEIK
notes: human IgG4 Fc (H4H prefix)
Take B1: the binding result in assay [1] was “no binding (tested: 0.03 nm at 100 nM mAb)”; in assay [2], “no binding (tested: background 0.03 nm at 100 nM mAb)”.

B2: H4H15361P2 (antibody, human IgG4, V domains shown)
VH: EVQLVESGGGLVQPGRSLRLSCTASGFSFGDNAMGWVRQAPGKGLEWVSFIRRKASGGTTEYAASVKGRFTISRDDSKSIAYLQMNSLKTEDTGVYYCTRGGAVYGYWGQGTLVTVSS
VL: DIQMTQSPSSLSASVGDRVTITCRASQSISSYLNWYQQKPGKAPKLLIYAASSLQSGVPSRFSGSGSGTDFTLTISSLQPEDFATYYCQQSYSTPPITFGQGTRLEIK
notes: human IgG4 Fc (H4H prefix)
Regarding B2, the binding result in assay [1] was “no binding (tested: 0.03 nm at 100 nM mAb)”.

B3: H4H15318P (antibody, human IgG4, V domains shown)
VH: QVQLVESGGGVVQPGRSLRLSCTASGFTFGNFGIHWVRQAPGKGLEWVAVISYDGTDKFYADPVKGRFIISRDNSMNILYLQMNSLRAEDTAVYYCAKDGEMELRGYYYYYGMDVWGQGTTVTVSS
VL: DIQMTQSPSSVSASVGDRVTITCRASQGINTWLAWYQQKPGTAPKLLIFAASSLESGVPSRFSGSGFGTDFTLTISSLQSEDLATYFCQQVHSPPYTFGQGTKLEIK
notes: human IgG4 Fc (H4H prefix)
For the molecule B3, the binding result in assay [1] is on record as “no binding (tested: 0.03 nm at 100 nM mAb)”.

B4: H4H15323P (antibody, human IgG4, V domains shown)
VH: EVQLVESGGGLVQPGGSLRLSCAASGFTFSSYAMTWVRQAPGKGLEWVSAISGSGGSTYYTDSVKGRFTLSRDNSKNTLYLQMNSLRAEDTAVYYCAKSDYSNTIYWYYGMDVWGQGTTVTVSS
VL: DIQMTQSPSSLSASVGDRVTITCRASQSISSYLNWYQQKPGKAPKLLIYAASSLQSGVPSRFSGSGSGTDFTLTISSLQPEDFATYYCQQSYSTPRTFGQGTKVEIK
notes: human IgG4 Fc (H4H prefix)
For the molecule B4, the binding result in assay [1] is given as “no binding (tested: 0.03 nm at 100 nM mAb)”.

B5: H4H15347P (antibody, human IgG4, V domains shown)
VH: EVQLVESGGGLVQPGGSLRLSCAASGFTFRNYAMNWARQAPGKGLEWVSGITGSGGATYYADSVKGRFTISRENSKNTLFLQMDTLRAEDTAVYYCAKDRRYFPTSGGPQWGQGTLVTVSS
VL: DIVMTQSPLSLPVTPGEPASISCRSSRSLLHSSGYNYLDWYLQKPGQSPQLLLYLGSNRASGVPDRFSGSGSGTYFTLKISRVDAEDVGVYYCMQALQTPWTFGQGTKVEIK
notes: human IgG4 Fc (H4H prefix)
Take B5: the binding result in assay [1] is reported as “no binding (tested: 0.03 nm at 100 nM mAb)”.

B6: H4H15346P (antibody, human IgG4, V domains shown)
VH: EVQLVESGGGLVQPGGSLRLSCAASGFTFSNYAMSWVRQAPGKGLEWVSTISDTGGSTYYADSVKGRFALSRDNSRNTLYLQMNSLRAEDTAVYYCAKEGPPDYWGQGTLVTVSS
VL: EIVLTQSPATLSLSPGERATLSCRTSQSVSIYLAWYQQKPGQAPRLLIYDASKRATGIPARFSGRGSGTDFTLTISSLEPEDFAVYYCQQRSNWPLTFGQGTRLEIK
notes: human IgG4 Fc (H4H prefix)
For the molecule B6, the values for the binding result in assay [1] and in assay [2] were “no binding (tested: 0.03 nm at 100 nM mAb)” and “no binding (tested: background 0.03 nm at 100 nM mAb)”, respectively.

B7: H4H15355P2 (antibody, human IgG4, V domains shown)
VH: QVQLVESGGGVVQPGRSLRLSCAASGFTFTNYAMHWVRQAPGKGLEWVAVISYDGSHTYFADSVKGRFTMSRDNSKNTISLQMNSLRPEDTAVYFCAGGGATTWFYFYGLDVWGQGTTVTVSS
VL: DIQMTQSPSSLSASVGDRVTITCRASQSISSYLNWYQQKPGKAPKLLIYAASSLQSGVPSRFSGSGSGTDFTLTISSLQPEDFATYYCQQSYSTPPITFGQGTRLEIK
notes: human IgG4 Fc (H4H prefix)
Take B7: the binding result in assay [1] is on record as “no binding (tested: 0.03 nm at 100 nM mAb)”.

B8: H4H15321P (antibody, human IgG4, V domains shown)
VH: EVQLVESGGGLVQPGGSLRLSCAASGFTFSSYAMSWVRQAPGKGLEWVSAITGSGGRTYYADSVKGRFTISRDNAKNTLYLQMNSLRAEDTAVYYCAKNFPFDYWGQGTLVTVSS
VL: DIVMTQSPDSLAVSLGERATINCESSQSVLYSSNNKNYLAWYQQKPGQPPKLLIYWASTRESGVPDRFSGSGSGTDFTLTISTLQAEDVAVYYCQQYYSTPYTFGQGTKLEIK
notes: human IgG4 Fc (H4H prefix)
Regarding B8, the binding result in assay [1] is “no binding (tested: 0.03 nm at 100 nM mAb)”.

B9: H4H15345P (antibody, human IgG4, V domains shown)
VH: EVQLVESGGGLVQPGGSLRLSCAASGFTFSTYAMSWVRQAPGKGLEWVSVISGSFISTYYADSVKGRFTISRDNSKNTLYLQMTSLRAEDTAVYYCAKNSPFDYWGQGTLVTVSS
VL: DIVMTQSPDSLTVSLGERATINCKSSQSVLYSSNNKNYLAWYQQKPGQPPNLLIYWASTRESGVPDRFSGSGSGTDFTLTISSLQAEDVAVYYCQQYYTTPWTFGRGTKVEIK
notes: human IgG4 Fc (H4H prefix)
For the molecule B9, the binding result in assay [1] was “no binding (tested: 0.03 nm at 100 nM mAb)”.

B10: H4H15357P2 (antibody, human IgG4, V domains shown)
VH: EVQLVESGGGLVKPGGSLRLSCTASGFTFGNAWMSWVRQAPGKGLEWVGLIKGKTDGGTTNYAAPVKGRFTISRDDSKNTLYLHLNSLRTEDTALYYCTTDQVELRQYYYYGLDVWGQGTTVTVSS
VL: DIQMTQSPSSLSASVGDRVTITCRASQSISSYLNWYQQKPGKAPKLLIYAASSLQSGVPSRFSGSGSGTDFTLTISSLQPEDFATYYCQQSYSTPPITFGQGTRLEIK
notes: human IgG4 Fc (H4H prefix)
Turning to B10, the binding result in assay [1] was “no binding (tested: 0.03 nm at 100 nM mAb)”.

B11: H4H15367P2 (antibody, human IgG4, V domains shown)
VH: QVQLVESGGGVVQPGRSVRLSCGASGFTFKYYGMHWVRQAPGKGLEWVAVIWYDGRNKFYADSVKGRFTISRDNSKNTVNLEMNNLRAEDTAIYYCARDGGTADGDYFDYWGQGTLVTVSS
VL: not shown
notes: human IgG4 Fc (H4H prefix)
B11: the binding result in assay [1] is “no binding (tested: 0.03 nm at 100 nM mAb)”.

B12: H4H15335P (antibody, human IgG4, V domains shown)
VH: QVQLVESGGGVVQPGRSLRLSCAASGFTFNNYGIHWVRQAPGKGLEWVAVISYDESNKYYADSVKGRFTISRDNSKNTLYLQMNSLRAEDTAVYYCAKDIRIAARRHYYYYGMDVWGQGTTVTVSS
VL: DIQMTQSPSSVSASVGDRVTITCRASQGISRWLAWYQQKPGKAPKLLIYAASSLESGVPARFSGSGSGTDFTLTISSLQPEDFATYYCQQANSFPITFGPGTKVDIK
notes: human IgG4 Fc (H4H prefix)
With B12, the binding result in assay [1] is “no binding (tested: 0.03 nm at 100 nM mAb)”.

B13: H4H15363P2 (antibody, human IgG4, V domains shown)
VH: EVQLVESGGGLVQPGGSLRLSCAASGFTFSNYAMSWVRQVPGKGLEWVSTISGSGGSTYYADSVKGRFTISRDNSKNSLYLQMNSLRAEDTAVYYCAKLVRGVIGWFDPWGQGTLVTVSS
VL: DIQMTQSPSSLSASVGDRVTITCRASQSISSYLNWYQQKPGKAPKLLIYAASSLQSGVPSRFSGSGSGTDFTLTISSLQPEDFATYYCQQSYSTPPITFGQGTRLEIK
notes: human IgG4 Fc (H4H prefix)
Consider B13, for which the binding result in assay [1] is “no binding (tested: 0.03 nm at 100 nM mAb)”.

B14: H4H15350P2 (antibody, human IgG4, V domains shown)
VH: EVQLVESGGGLVQPGGSLRLSCAASGFTFSSFRMTWVRQAPGKGLEWVANIKQDGSEKYYVDSVKGRFTISRDNAKNSLYLQMNSLRAEDTAVYYCARGGGIAAYWGQGTLVTVSS
VL: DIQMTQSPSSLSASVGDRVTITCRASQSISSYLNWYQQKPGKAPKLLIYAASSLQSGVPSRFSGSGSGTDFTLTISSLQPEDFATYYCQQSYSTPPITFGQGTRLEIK
notes: human IgG4 Fc (H4H prefix)
On to B14, for which the binding result in assay [1] is “no binding (tested: 0.03 nm at 100 nM mAb)”.

B15: H4H15334P (antibody, human IgG4, V domains shown)
VH: QVQLQESGPGLVKPSQTLSLTCTVSGGSINSGGYYWNWIRQHPGKGLEWIGYIYYSGSTYFNPSLKSRVTISIDTSKNQFSLKLSSVTAADTAVYYCAREGIYAFDYWGQGTLVTVSS
VL: DIQMTQSPSSLSASVGDRVTITCRASQGIRNDLGWYQQKPGKAPKRLIYSASSLQSGVPSRFGGSGSGTEFTLTISSLQPEDFATYYCLQHNSYPWTFGQGTKVEIK
notes: human IgG4 Fc (H4H prefix)
B15: the binding result in assay [1] is reported as “no binding (tested: 0.03 nm at 100 nM mAb)”; in assay [2], “no binding (tested: background 0.03 nm at 100 nM mAb)”.

B16: H4H15314P2 (antibody, human IgG4, V domains shown)
VH: QVQLVQSGAEVKKPGASVKVSCKASGYTFTSYDINWVRQATGQGLEWMGWMNPNGDNTGYAQKFQGRVTMTGDTSISTAYMELSSLRSEDTAVYYCAREGIWGFDPWGQGTLVTVSS
VL: DIQMTQSPSSLSASVGDRVTITCRASQDIRNDLGWYQQKPGKAPKRLIYAASSLQSGVPSRFSGSGSGTEFTLTISSLQPEDFATFYCLQHNTFPRTFGQGTKVEIK
notes: human IgG4 Fc (H4H prefix)
For B16, the binding result in assay [1] is recorded as “no binding (tested: 0.03 nm at 100 nM mAb)”; in assay [2], “no binding (tested: background 0.03 nm at 100 nM mAb)”.

B17: H4H15330P (antibody, human IgG4, V domains shown)
VH: QVQLVESGGGLVKPGGSLRLSCAASGFTFSDYYMSWIRQAPGKGLEWISHISGSGRTTHYADSMKGRFTISRDNAKNSLYLQMNSLRAEDTAVYYCVREGGFNWNYEGTFDIWGQGTMVTVSS
VL: DIVMTQTPLSSPVTLGQPASISCRSSQSLLHSDQNTYLSWLHQRPGQPPRLLIYKISNRFSGVPDRFSGSGAGTDFTLKISRVEAEDVGIYYCMQGTQFPLTFGGGTKVEIK
notes: human IgG4 Fc (H4H prefix)
Turning to B17, the binding result in assay [1] is “no binding (tested: 0.03 nm at 100 nM mAb)”.

B18: H4H15369P2 (antibody, human IgG4, V domains shown)
VH: EVQLVESGGGLVQPGGSLRLSCVGTGFTFSNYAMSWVRQAPGKGLEWVSGISGRSSGTFYADSVKGRFTISRDNSQNTLYLQMNSLGAEDTAVYYCAKVSRYNWDYVPFDFWGQGTLVTVSS
VL: not shown
notes: human IgG4 Fc (H4H prefix)
Take B18: the binding result in assay [1] is on record as “no binding (tested: 0.03 nm at 100 nM mAb)”.

B19: H4H15362P2 (antibody, human IgG4, V domains shown)
VH: QVQLVESGGGVVQPGRSLRLSCAASGFTFSSYGMHWVRQAPGKGLEWVAVIWYDGSNKYYADSVKGRFTISRDNSKNTLYLQMNSLRAEDTAVYYCARDWVRFLEWFPHFDYWGQGTLVTVSS
VL: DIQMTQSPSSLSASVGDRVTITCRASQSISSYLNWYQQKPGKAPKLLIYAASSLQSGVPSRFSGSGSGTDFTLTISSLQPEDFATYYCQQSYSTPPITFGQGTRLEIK
notes: human IgG4 Fc (H4H prefix)
Turning to B19, the binding result in assay [1] is “no binding (tested: 0.03 nm at 100 nM mAb)”.
